We go through 10 molecules from US20020115066A1, “Viral therapeutics” (priority 1998, published 2002).

B1: pSFV.Δ161-166: construct lacking the sequences encoding residues 161 to 166 of the core protein of HCV strain Glasgow (protein)
chain: GACECPGRSRRPCTMSTNPKPQRKTKRNTNRRPQDVKFPGGGQIVGGVYLLPRRGPRLGVRATRKTSERSQPRGRRQPIPKARRPKGRNWAQPGYPWPLYGNEGCGWAGWLLSPSGSRPSWGPNDPRRRSRNLGKVIDTLTCGFVDLMGYIPLVGAPLRGHGVRVLEDGVNYATGNLPGCSFSIFLLAL
B2: pSFV.1-124,145-152: core variant truncated at residue 152 and lacking amino acids 125 to 144 (protein)
chain: GACECPGRSRRPCTMSTNPKPQRKTKRNTNRRPQDVKFPGGGQIVGGVYLLPRRGPRLGVRATRKTSERSQPRGRRQPIPKARRPKGRNWAQPGYPWPLYGNEGCGWAGWLLSPSGSRPSWGPNVDLMGYIP
B3: pSFV.1-195: SFV construct encoding the N-terminal 195 amino acids of HCV strain Glasgow (core protein) (protein)
chain: GACECPGRSRRPCTMSTNPKPQRKTKRNTNRRPQDVKFPGGGQIVGGVYLLPRRGPRLGVRATRKTSERSQPRGRRQPIPKARRPKGRNWAQPGYPWPLYGNEGCGWAGWLLSPSGSRPSWGPNDPRRRSRNLGKVIDTLTCGFVDLMGYIPLVGAPLRGAARALAHGVRVLEDGVNYATGNLPGCSFSIFLLAL
B4: pSFV.1-169: SFV construct encoding amino acid residues 1-169 of HCV strain Glasgow core (protein)
chain: GACECPGRSRRPCTMSTNPKPQRKTKRNTNRRPQDVKFPGGGQIVGGVYLLPRRGPRLGVRATRKTSERSQPRGRRQPIPKARRPKGRNWAQPGYPWPLYGNEGCGWAGWLLSPSGSRPSWGPNDPRRRSRNLGKVIDTLTCGFVDLMGYIPLVGAPLRGAARALAHGV
B5: pSFV.Δ125-144: construct expressing a core variant in which residues 125 to 144 had been deleted (protein)
chain: GACECPGRSRRPCTMSTNPKPQRKTKRNTNRRPQDVKFPGGGQIVGGVYLLPRRGPRLGVRATRKTSERSQPRGRRQPIPKARRPKGRNWAQPGYPWPLYGNEGCGWAGWLLSPSGSRPSWGPNVDLMGYIPLVGAPLRGAARALAHGVRVLEDGVNYATGNLPGCSFSIFLLAL
B6: pSFV.Δ155-161: construct lacking the sequences encoding residues 155 to 161 of the core protein of HCV strain Glasgow (protein)
chain: GACECPGRSRRPCTMSTNPKPQRKTKRNTNRRPQDVKFPGGGQIVGGVYLLPRRGPRLGVRATRKTSERSQPRGRRQPIPKARRPKGRNWAQPGYPWPLYGNEGCGWAGWLLSPSGSRPSWGPNDPRRRSRNLGKVIDTLTCGFVDLMGYIPLVARALAHGVRVLEDGVNYATGNLPGCSFSIFLLAL
B7: pSFV.1-153: SFV construct encoding amino acid residues 1-153 of HCV strain Glasgow core (protein)
chain: GACECPGRSRRPCTMSTNPKPQRKTKRNTNRRPQDVKFPGGGQIVGGVYLLPRRGPRLGVRATRKTSERSQPRGRRQPIPKARRPKGRNWAQPGYPWPLYGNEGCGWAGWLLSPSGSRPSWGPNDPRRRSRNLGKVIDTLTCGFVDLMGYIPL
B8: pSFV.1-173: SFV construct encoding amino acid residues 1-173 of HCV strain Glasgow core (protein)
chain: GACECPGRSRRPCTMSTNPKPQRKTKRNTNRRPQDVKFPGGGQIVGGVYLLPRRGPRLGVRATRKTSERSQPRGRRQPIPKARRPKGRNWAQPGYPWPLYGNEGCGWAGWLLSPSGSRPSWGPNDPRRRSRNLGKVIDTLTCGFVDLMGYIPLVGAPLRGAARALAHGVRVLE

In one experiment the test system is ADRP.
Experiment: not given
To be noted: cited from earlier work.
Regarding `CC(C)Cc1ccc(C(C)C(=O)O)cc1` (stereo not drawn) [ibuprofen], the ADRP expression result is given as “stimulate ADRP expression”. `COc1ccc2c(c1)c(CC(=O)O)c(C)n2C(=O)c1ccc(Cl)cc1` [indomethacin]: the ADRP expression result was “stimulate ADRP expression”.

A further experiment has as its system lipid droplets. Kind of experiment: Intracellular localization of core proteins and lipid droplets (indirect immunofluorescence, oil red O, confocal microscopy). To be noted: BHK C13 cells, 20 hours after electroporation, antibody JM122 and oil red O. In kind it is cell-based, hamster. On the procedure:
BHK C13 cells were harvested 20 hours after electroporation and fixed with 4% paraformaldehyde, 0.1% Triton X-100. Indirect immunofluorescence was performed with antibody JM122 and an anti-mouse secondary antibody conjugated with FITC. Lipid droplets were stained with oil red O. Panels A, D, G, J, M, P, S and V show the distributions of core protein. Panels B, E, H, K, N, Q, T and W show the locations of lipid droplets. Panels C, F, I, L, O, R, U and X are merged images of core protein and lipid droplets. Cells were electroporated with RNA from the following constructs: panels A, B and C, pSFV.1-195; panels D, E and F, pSFV.1-173; panels G, H and I, pSFV.1-169; panels J, K and L, pSFV.1-153; panels M, N and O, pSFV.Δ155-161; panels P, Q and R, pSFV.Δ161-166; panels S, T and U, pSFVA125-144; panels V, W and X, pSFV.1-124, 145-152.
(§1) 0.8 ml of competent cells were mixed with in vitro transcribed RNA in an electroporation cuvette (0.4 cm gap) and pulsed twice at either 1.2 kV, 25 μF (for BHK C13 cells) or 0.36 kV, 960 μF (for MCA RH7777 cells). Between pulses, the cell/RNA suspension was gently mixed. Following electroporation, cells were diluted in growth medium and seeded onto either tissue culture dishes or coverslips in 24-well tissue culture plates and then incubated at 37° C.
(§2) Cells on 13 mm coverslips were fixed in either methanol at −20° C. or 4% paraformaldehyde, 0.1% Triton X-100 (prepared in PBS) at 4° C. for 30 mins. Following washing with PBS and blocking with PBS/CS (PBS containing 1% newborn calf serum), cells were incubated with primary antibody (diluted in PBS/CS at 1/200 for JM122 antibody, 1/1000 for 308 antisera and 1/100 for adipophilin antibody) for 2 hours at room temperature. Cells were washed extensively with PBS/CS and then incubated with conjugated secondary antibody (either anti-mouse or anti-rabbit IgG raised in goat) for 2 hours at room temperature. Cells were washed extensively in solutions of PBS/CS followed by PBS and finally H2O before mounting on slides using Citifluor. Samples were analyzed using a Leiss LSM confocal microscope.
Following incubation with both antibodies and washing, lipid droplets were stained in paraformaldehyde-fixed cells by briefly rinsing coverslips in 60% propan-2-ol followed by incubation with 0.5 ml 60% propan-2-ol containing oil red O for 1.5-2 mins at room temperature. Coverslips were briefly rinsed with 60% propan-2-ol, washed with PBS and H2O and mounted as described above. The oil red O staining solution was prepared from a saturated stock of approximately 1% oil red O dissolved in propan-2-ol. Before staining, the stock was diluted with H2O and then filtered.
This conclusion was arrived at by combining the techniques of immune electron microscopy with the ability to stain lipid with osmium tetroxide. However, this method suffers from the disadvantages that it is time-consuming and osmium tetroxide can stain other biological molecules (e.g. proteins) in addition to lipid. Therefore, we developed a method for detecting proteins firstly by indirect immunofluorescence followed by staining of lipid droplets with the oil-soluble colorant oil red O. Combined with the method of confocal microscopy, it is possible to visualize the intracellular localizations of core protein and lipid droplets separately and together. Here, BHK C13 cells have been electroporated with pSFV.1-195 RNA and, following incubation at 37° C. for 20 hours, the cells have been examined by both indirect immunofluorescence and staining with oil red O. In panel A, the core protein produced by pSFV.1-195 is seen to locate to vesicular structures in the cytoplasm.
Regarding B1, the “intracellular localization of core protein relative to lipid droplets” value was “diffuse cytoplasmic pattern”.

Take B2: the “intracellular localization of core protein relative to lipid droplets” value is “diffuse fluorescence”. Same read-out and setting: the value for B3 was “sited around the lipid droplets”; that for B4 was “continue to locate to lipid droplets”; that for B5 was “diffuse fluorescence”. Still for that read-out and setting: the same measure for B6: “did not affect lipid droplet association”. Still for that read-out and setting: the same measure for B7: “do not associate with lipid droplets”; for B8: “continue to locate to lipid droplets”.

A further experiment deals with ADRP. Kind of experiment: Effect of expression of core proteins on the ability to detect ADRP in BHK C13 cells by confocal microscopy. The format is cell-based, hamster. To be noted: 20 hours after electroporation, anti-adipophilin antibody. On the procedure:
Cells were harvested 20 hours after electroporation and fixed with methanol. ADRP was detected with anti-adipophilin antibody and core protein with 308 antisera. Secondary antibodies were an anti-mouse IgG conjugated with FITC (for anti-adipophilin) and anti-rabbit IgG conjugated with Cy5 (for 308 antisera). Panels A, D, G, J, M and P are images of ADRP localization. Panels B, E, H, K, N, and Q are images of core distribution. Panels C, F, I, L, O and R show the merged images of core and ADRP distributions. Cells were electroporated with RNA from the following constructs: panels A, B and C, pSFV.1-195; panels D, E and F, pSFV.1-173; panels G, H and I, pSFV.1-169; panels J, K and L, pSFV.1-153; panels M, N and O, pSFV.Δ155-161; panels P, Q and R, pSFV.Δ161-166.
as §1, §2
As for B1, the “ADRP detected by immunofluorescence in core-expressing cells” value is reported as “readily found”. On the same count and under the same terms, the value for B3 was “either lacked or contained barely detectable amounts of ADRP”; that for B4 was “barely detectable”; that for B6 was “barely detectable”. On the same count and under the same terms, the same measure for B7: “readily found”; for B8: “barely detectable”.

For a further experiment, the system named is ADRP. Kind of experiment: Effect of expression of core protein on the abundance of ADRP (Western blot). The format is cell-based, hamster. The following applies: BHK C13 cells, extracts at various times following electroporation. As to the method:
BHK C13 cells were electroporated with RNA from pSFV.1-195 and pSFV.1-153 and extracts were prepared at the times indicated following electroporation. Aliquots of cell extracts were electrophoresed on 10% polyacrylamide gels and then the proteins were transferred to nitrocellulose membrane for Western blot analysis. The upper panels show membranes probed with JM122 antibody while, in the lower panels, membranes were probed with anti-adipophilin antibody. Bands corresponding to core proteins, expressed from pSFV.1-195 and pSFV.1-153, and ADRP are arrowed.
To prepare extracts, electroporated cells were harvested by removing the growth medium and washing the cell monolayers with PBS. Cells were scraped into PBS and pelleted by centrifugation at 100 g for 5 mins at 4° C. The cell pellet was solubilized in sample buffer consisting of 160 mM Tris (pH 6.7), 2% SDS, 700 mM β-mercaptoethanol, 10% glycerol, 0.004% bromophenol blue.
For Western blot analysis, proteins were separated on polyacrylamide gels and transferred to nitrocellulose membrane using standard techniques. The nitrocellulose membrane was blocked in 3% gelatin, 20 mM Tris (pH 7.5), 500 mM NaCl for at least 6 hours at 37° C. prior to incubation with the primary antibody. […] Bound antibody was detected by enhanced chemiluminescence.
A general note: A western blot detects proteins with antibodies after separation by electrophoresis.
Regarding B3, the “abundance of ADRP by Western blot” value was “rapid reduction in ADRP levels to barely detectable quantities”.

Consider B7, for which the “abundance of ADRP by Western blot” value is “no change in the abundance of ADRP”.
